Reference: article PMC2645691

B1: GST fused to the GLR-2 cytosolic domain (GST::GLR-2) (domain or fragment)
chain: VEFLFRKNKENREKERNRMRSSRPLKPGILASCERAKQKQLQNRRTKSEEVSTPRSTLF
B2: GST fused to the GLR-2 cytosolic domain with a mutated PDZ recognition motif (GST::GLR-2AAA) (domain or fragment)
chain: VEFLFRKNKENREKERNRMRSSRPLKPGILASCERAKQKQLQNRRTKSEEVSTPRSAAA

Molecular target: FLAG-tagged MAGI-1L (C. elegans)
Assay: co-IP; COS-7 cells cotransfected with FLAG- and GST-tagged proteins; lysis in modified RIPA (50 mM Tris-HCl pH 7.4, 125 mM NaCl, 0.25% NP-40); anti-FLAG beads; blots with anti-FLAG and anti-GST, films quantified against input

| Binder | percent coimmunoprecipitated [%] |
| --- | --- |
| B1 | 10 |
| B2 | 0 to 2 |
